Data taken from patent publication US20220275088A1 (Dana-Farber, published 2022).
Values belong to the binder of their own block, whether it stands above or below them.

Key:
[1] = molecular target: human PD-1 on cells (transfected Expi293 cells, PHA-cultured T cells, cells of the Promega PD1-PDL1 bioassay, … (human, UniProt Q15116 25-288)); assay: cell-based or functional assay
[2] = molecular target: T1, mouse PD-1 on transiently transfected Expi293 cells (mouse, UniProt Q02242 25-288); assay: flow cytometry on transiently transfected Expi293 cells, anti human Fc-APC
T1 construct: whole, on cells; also called mPD-1
T1 sequence (looked up): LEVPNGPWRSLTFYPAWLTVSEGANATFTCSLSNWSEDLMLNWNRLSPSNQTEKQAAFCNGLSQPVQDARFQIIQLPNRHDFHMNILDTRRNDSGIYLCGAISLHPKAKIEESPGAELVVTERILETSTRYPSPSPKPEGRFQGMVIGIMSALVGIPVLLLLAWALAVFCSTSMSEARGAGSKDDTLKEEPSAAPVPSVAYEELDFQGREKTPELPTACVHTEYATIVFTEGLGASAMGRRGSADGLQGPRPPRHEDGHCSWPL
Procedure: 3E5 transiently transfected Expi293 cells were suspended in 100 ul MACS buffer and added to each well. 50 ul of each antibody dilution were then mixed with the cells and the plate was incubated at 4° C. for 30 min. Following incubation, the plate was washed 2× with MACS buffer and then incubated with 1 ul/well anti human Fc-APC (Biolegend #409306). The plate was incubated for 25 min at 4° C. and then washed 3× before running the samples.

Sequence of human PD-1 on cells (transfected Expi293 cells, PHA-cultured T cells, cells of the Promega PD1-PDL1 bioassay, … (Q15116 25-288): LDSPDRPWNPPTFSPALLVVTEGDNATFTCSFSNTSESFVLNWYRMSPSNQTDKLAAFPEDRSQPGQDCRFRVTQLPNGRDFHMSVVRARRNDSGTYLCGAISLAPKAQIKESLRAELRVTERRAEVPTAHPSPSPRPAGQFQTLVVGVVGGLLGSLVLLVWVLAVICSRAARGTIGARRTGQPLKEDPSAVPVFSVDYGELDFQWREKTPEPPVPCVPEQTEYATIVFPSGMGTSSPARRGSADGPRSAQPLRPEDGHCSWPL

- fold induction (RLU stimulated/RLU unstimulated), Promega PD1-PDL1 bioassay [1]: ~0.5 fold of the signal of pembro and nivo
B1: P4-B3 IgG1 wild type monomer (antibody, V domains shown)
VH: QVQLVQSGGGLVQPGRSLRLSCAASGFTFDDYAMHWVRQAPGKGLEWVSGISWNSGSIGYADSVKGRFTVSRDNAKNSLYLQMNSLRAEDTAVYYCASDYGDKYYYYGMDVWGKGTTVTVSS
VL: QPGLTQPPSASGTPGQRVTISCSGSSSNIGSNTVNWYQQFPGKAPKLLIFNDNQRPSGVPDRFSASKSGTSASLAISGLQSEDEADYYCAAWDGGLNGRGVFGGGTKLTVLG

- binding result [2]: binds
B2: P4-B3 (Example 8, format not stated) (antibody, V domains shown)
VH: B1 VH
VL: QPGLTQPPSASGTPGQRVTISCSGSSSNIGSNTVNWYQQFPGKAPKLLIFNDNQRPSGVPDRFSASKSGTSASLAISGLQSEDEADYYCAAWDGGLNGRGVFGGGTKLTVL
notes: Detected with anti human Fc-APC, so it carries a human Fc
